The results in this text go back to patent publication US20140249045.

This data set deals with T1, RagD GTPase as used in the in vitro GTPase assay, Q9NQL2.
T1 chain: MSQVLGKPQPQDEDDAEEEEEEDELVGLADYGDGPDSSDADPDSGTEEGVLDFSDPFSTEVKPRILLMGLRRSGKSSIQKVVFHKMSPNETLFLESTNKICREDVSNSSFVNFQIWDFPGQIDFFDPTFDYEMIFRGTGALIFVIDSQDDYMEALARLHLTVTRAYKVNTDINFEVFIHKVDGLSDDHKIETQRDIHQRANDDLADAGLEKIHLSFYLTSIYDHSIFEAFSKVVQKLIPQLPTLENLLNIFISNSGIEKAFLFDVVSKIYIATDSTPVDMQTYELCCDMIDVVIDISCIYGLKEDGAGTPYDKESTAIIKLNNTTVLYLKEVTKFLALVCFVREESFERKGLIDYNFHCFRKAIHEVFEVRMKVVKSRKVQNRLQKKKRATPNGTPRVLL

B1: His-LRS-(759-1176) (protein)
chain: MADAGILRLYTWVEWVKEMVANWDSLRSGPASTFNDRVFASELNAGIIKTDQNYEKMMFKEALKTGFFEFQAAKDKYRELAVEGMHRELVFRFIEVQTLLLAPFCPHLCEHIWTLLGKPDSIMNASWPVAGPVNEVLIHSSQYLMEVTHDLRLRLKNYMMPAKGKKTDKQPLQKPSHCTIYVAKNYPPWQHTTLSVLRKHFEANNGKLPDNKVIASELGSMPELKKYMKKVMPFVAMIKENLEKMGPRILDLQLEFDEKAVLMENIVYLTNSLELEHIEVKFASEAEDKIREDCCPGKPLNVFRIEPGVSVSLVNPQPSNGHFSTKIEIRQGDNCDSIIRRLMKMNRGIKDLSKVKLMRFDDPLLGPRRVPVLGKEYTEKTPISEHAVFNVDLMSKKIHLTENGIRVDIGDTIIYLVH
With B1, the “GTP hydrolysis by RagD GTPase (in vitro GTPase assay)” value is “addition of WT LRS fragment (759-1176 a.a) enhanced GTP hydrolysis by RagD GTPase in dose- and time-dependent manner”.

B2: LRS (759-1176 a.a) fragment R845A (protein)
chain: MADAGILRLYTWVEWVKEMVANWDSLRSGPASTFNDRVFASELNAGIIKTDQNYEKMMFKEALKTGFFEFQAAKDKYRELAVEGMHAELVFRFIEVQTLLLAPFCPHLCEHIWTLLGKPDSIMNASWPVAGPVNEVLIHSSQYLMEVTHDLRLRLKNYMMPAKGKKTDKQPLQKPSHCTIYVAKNYPPWQHTTLSVLRKHFEANNGKLPDNKVIASELGSMPELKKYMKKVMPFVAMIKENLEKMGPRILDLQLEFDEKAVLMENIVYLTNSLELEHIEVKFASEAEDKIREDCCPGKPLNVFRIEPGVSVSLVNPQPSNGHFSTKIEIRQGDNCDSIIRRLMKMNRGIKDLSKVKLMRFDDPLLGPRRVPVLGKEYTEKTPISEHAVFNVDLMSKKIHLTENGIRVDIGDTIIYLVH
As to B2, the “GAP activity on RagD (in vitro GTPase assay)” value was “H844A and R845A mutants lost their GAP activity while WT LRS showed GAP activity”.

B3: LRS (759-1176 a.a) fragment H844A (protein)
chain: MADAGILRLYTWVEWVKEMVANWDSLRSGPASTFNDRVFASELNAGIIKTDQNYEKMMFKEALKTGFFEFQAAKDKYRELAVEGMARELVFRFIEVQTLLLAPFCPHLCEHIWTLLGKPDSIMNASWPVAGPVNEVLIHSSQYLMEVTHDLRLRLKNYMMPAKGKKTDKQPLQKPSHCTIYVAKNYPPWQHTTLSVLRKHFEANNGKLPDNKVIASELGSMPELKKYMKKVMPFVAMIKENLEKMGPRILDLQLEFDEKAVLMENIVYLTNSLELEHIEVKFASEAEDKIREDCCPGKPLNVFRIEPGVSVSLVNPQPSNGHFSTKIEIRQGDNCDSIIRRLMKMNRGIKDLSKVKLMRFDDPLLGPRRVPVLGKEYTEKTPISEHAVFNVDLMSKKIHLTENGIRVDIGDTIIYLVH
In the case of B3, the “GAP activity on RagD (in vitro GTPase assay)” value is “H844A and R845A mutants lost their GAP activity while WT LRS showed GAP activity”.
